From US10000771B2, “Nuclear targeting sequences” (Yeda Research and Development Co. Ltd., priority 2007, dated 2018) come the findings set out here.

In one assay the test system is SPS domain. The assay is described as follows: SPS phosphorylation detected by anti pSPS Ab Western blot. The class given is cell-based. The following applies: COS7 cells, stimulated with VOOH, TPA, EGF or TGFβ, immunoprecipitation and Western blot. The protocol: FIGS. 4A-4I are autoradiographs characterizing SPS phosphorylation using an Ab to the phosphorylated SPS domain. FIG. 4A illustrates an elevation of pSPS detection upon stimulation. COS cells were transfected with WT-GFP-ERK2. Twenty-four hr after transfection, the cells were serum-starved for 16 hr and subsequently treated with the general stimulator VOOH (V, 100 μM Na3VO4 and 200 μM H2O2, 15 min), TPA (T, 250 nM, 15 min), EGF (E, 50 ng/ml for 15 min), or left untreated (NT). The GFP-ERK2 was immunoprecipitated with anti GFP Ab, extensively washed, and the IP was then subjected to Western blotting with anti phospho SPS-ERK (αphoSPS-ERK) and anti general ERK (αgen-ERK) Abs. FIG. 4B is a time course of SPS phosphorylation. COS7 cells overexpressing WT-GFP-ERK2 were serum starved followed by EGF stimulation for the indicated time points. The lysates were then subjected to Western blot analysis as in FIG. 4A. […] SPS phosphorylation was detected using the anti pSPS Abs, and this was compared to the amount of genral ERKs detected by αgERK. […] SPS-phosphorylation was detected using αpSPS and αgERK Abs. […] The phosphorylation (^32P-ERK2) of ERK and its mutants was detected by autoradiography. […]
FIG. 9B is an autoradiograph illustrating that stimulation elevates pSPS phosphorylation of 2GFP-SPS construct. […] The total amount of immunoprecipitated 2GFP-SPS was detected with αGFP Ab. […]

In another assay the test system is CHO cells. The assay is described as follows: Microscopy of SMAD3 and MH2 constructs (subcellular localization). It is filed as cell-based. The note with it: overexpressed in CHO cells, fluorescence microscopy. An excerpt: FIGS. 11A-11D are photomicrographs illustrating that mutation of SPS prevents the nuclear translocation of full length SMAD3. CHO cells overexpressing either Flag-SMAD3 (SMAD3) or its AAA mutant (AAA-SMAD3) were fixed and stained both with anti Flag Ab and DAPI.
FIGS. 12A-12F are photomicrographs illustrating that mutants of the SPS domain modulate the subcellular translocation of the MH2 region of SMAD3. CHO cells overexpressing MH2 domain of SMAD3 (WT-MH2), or the AAA (AAA-MH2) and DPD mutant (MH2-DPD) were fixed and visualized under florescent microscope.
Immunofluorescence Microscopy. Cells were fixed (30 min in 3% paraformaldehyde in PBS or 10 min with ice-cold methanol), followed by 5-min permeabilization with 0.2% Triton X-100 in PBS (23° C.). The fixed cells were sequentially incubated with the appropriate Abs (45 min) followed by rhodamine-conjugated secondary Abs (45 min) and DAPI. Slides were visualized using a fluorescence microscope (Nikon, Japan) at 400× magnifications.
Therefore, it seems likely that the SPS of SMAD3 operated similarly to that of ERK2. To examine whether this SPS of SMAD3 is involved in nuclear translocation WT-Flag-SMAD3 and a Flag-SMAD3 in which the SPS domain was replaced with three Ala residues (AAA-SMAD3) were overexpressed in CHO cells and their localization examined.

B1: WT-Flag-SMAD3: full length FLAG-SMAD3 (protein)
chain: MSSILPFTPPIVKRLLGWKKGEQNGQEEKWCEKAVKSLVKKLKKTGQLDELEKAITTQNVNTKCITIPRSLDGRLQVSHRKGLPHVIYCRLWRWPDLHSHHELRAMELCEFAFNMKKDEVCVNPYHYQRVETPVLPPVLVPRHTEIPAEFPPLDDYSHSIPENTNFPAGIEPQSNIPETPPPGYLSEDGETSDHQMNHSMDAGSPNLSPNPMSPAHNNLDLQPVTYCEPAFWCSISYYELNQRVGETFHASQPSMTVDGFTDPSNSERFCLGLLSNVNRNAAVELTRRHIGRGVRLYYIGGEVFAECLSDSAIFVQSPNCNQRYGWHPATVCKIPPGCNLKIFNNQEFAALLAQSVNQGFEAVYQLTRMCTIRMSFVKGWGAEYRRQTVTSTPCWIELHLNGPLQWLDKVLTQMGSPSIRCSSVS
modifications: left off: small tags and cut ends
For B1, the “SPS phosphorylation upon stimulation (anti pSPS Ab recognition)” value in the assay with SPS domain was “phosphorylated on its SPS domain”. Also, in the assay with CHO cells, the subcellular localization entry is recorded as “nuclear localization”.
